The values that follow come from patent US20220017634A1 (DENALI THERAPEUTICS, published 2022).

The target in assay [1] is T1, human transferrin receptor (human TfR) (human, UniProt P02786 89-760, limits assumed).
T1 construct: Recombinant target coated on plates or biotinylated and captured on streptavidin (ELISA, BLI); also called huTfR
Briefly: phage ELISA. The procedure: (§1) Clones were selected from panning outputs and grown in individual wells of 96-well deep-well plates. The clones were either induced for periplasmic expression using autoinduction media (obtained from EMD Millipore) or infected with helper phage for phage-display of the individual Fc variants on phage. The cultures were grown overnight and spun to pellet E. coli. For phage ELISA, phage containing supernatant was used directly. For periplasmic expression, pellets were resuspended in 20% sucrose, followed by dilution at 4:1 with water, and shaken at 4° C. for 1 hour. Plates were spun to pellet the solids and supernatant was used in the ELISA.
(§2) ELISA plates were coated with target, typically at […] overnight, then blocked with 1% BSA before addition of phage or periplasmic extracts. […] The plates were washed again, and then developed with TMB reagent and quenched with 2N sulfuric acid. Absorbance at 450 nm was quantified using a plate reader (BioTek®) and binding curves were plotted using Prism software where applicable. Absorbance signal for tested clones was compared to negative control (phage or paraplasmic extract lacking Fc). In some assays, soluble holo-transferrin was added during the binding step, typically at significant molar excess (greater than 10-fold excess).
(§3) Individual CH2A2 variants were expressed on the surface of phage and assayed for binding to human TfR, cyno TfR, or an irrelevant control by ELISA. Expression of Fc was confirmed by ELISA against anti-Myc antibody 9E10, which bound to the C-terminal c-Myc epitope tag. […] The three clones from group 1 also bound to cyno TfR, whereas the one clone from group 2 (i.e., clone 2A2.16) was specific for human TfR.
For orientation: ELISA stands for enzyme-linked immunosorbent assay.

Assay [2] addresses cynomolgus transferrin receptor (cyno TfR) (cynomolgus monkey, UniProt H9EXL1 89-760 (rhesus entry)). Briefly: phage ELISA. How it is done: as §1, §2, §3

Numbering of substitutions follows the chain as printed.

T1 sequence (P02786 89-760 limits assumed): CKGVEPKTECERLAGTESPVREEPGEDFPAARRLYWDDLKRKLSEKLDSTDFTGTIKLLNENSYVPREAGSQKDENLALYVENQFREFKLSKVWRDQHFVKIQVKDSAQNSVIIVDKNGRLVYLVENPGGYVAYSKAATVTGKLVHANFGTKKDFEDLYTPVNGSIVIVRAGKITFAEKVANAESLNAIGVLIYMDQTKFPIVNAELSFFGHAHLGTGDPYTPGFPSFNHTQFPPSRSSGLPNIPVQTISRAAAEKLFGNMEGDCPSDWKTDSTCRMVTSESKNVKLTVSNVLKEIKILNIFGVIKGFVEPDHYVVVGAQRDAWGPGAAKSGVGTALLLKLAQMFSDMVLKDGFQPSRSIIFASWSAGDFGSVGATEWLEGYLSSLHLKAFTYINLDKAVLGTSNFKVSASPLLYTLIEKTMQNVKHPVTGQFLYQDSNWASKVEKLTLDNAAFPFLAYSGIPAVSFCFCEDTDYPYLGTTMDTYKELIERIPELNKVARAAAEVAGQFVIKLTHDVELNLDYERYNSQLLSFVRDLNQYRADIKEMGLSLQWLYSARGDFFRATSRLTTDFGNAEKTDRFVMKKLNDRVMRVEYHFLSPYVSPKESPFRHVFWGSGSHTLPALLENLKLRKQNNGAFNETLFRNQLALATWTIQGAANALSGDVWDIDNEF
Sequence of cynomolgus transferrin receptor (cyno TfR) (chain, as listed by the source): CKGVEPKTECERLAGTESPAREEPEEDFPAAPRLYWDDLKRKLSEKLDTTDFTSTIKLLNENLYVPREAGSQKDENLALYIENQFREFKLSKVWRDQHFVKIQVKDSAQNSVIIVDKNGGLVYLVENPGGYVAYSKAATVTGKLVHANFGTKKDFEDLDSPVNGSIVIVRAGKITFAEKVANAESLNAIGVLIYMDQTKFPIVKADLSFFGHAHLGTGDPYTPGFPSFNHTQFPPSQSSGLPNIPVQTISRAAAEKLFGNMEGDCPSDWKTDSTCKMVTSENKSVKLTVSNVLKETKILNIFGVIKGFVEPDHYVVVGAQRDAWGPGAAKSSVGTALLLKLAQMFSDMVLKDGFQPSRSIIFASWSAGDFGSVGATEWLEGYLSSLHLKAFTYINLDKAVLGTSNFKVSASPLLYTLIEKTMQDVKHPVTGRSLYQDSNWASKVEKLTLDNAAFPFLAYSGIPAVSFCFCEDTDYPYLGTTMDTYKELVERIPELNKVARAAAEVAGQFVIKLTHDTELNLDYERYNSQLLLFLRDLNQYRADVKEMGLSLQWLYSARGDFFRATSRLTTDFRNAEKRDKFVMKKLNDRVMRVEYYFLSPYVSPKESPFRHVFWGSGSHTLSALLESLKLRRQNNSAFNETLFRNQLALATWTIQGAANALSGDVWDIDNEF

B1: Clone CH2A2.4, Fc displayed on phage (designed binder)
chain: APELLGGPSVFLFPPKPKDTLMISRTPEVTCVVVDVSHEDPEVSFEWYVDGVPVRWEWQWPREEQYNSTYRVVSVLTVLHQDWLNGKEYKCKVSNKALPAPIEKTISKAKGQPREPQVYTLPPSRDELTKNQVSLTCLVKGFYPSDIAVEWESNGQPENNYKTTPPVLDSDGSFFLYSKLTVDKSRWQQGNVFSCSVMHEALHNHYTQKSLSLSPGK
notes: As m16
As to B1, the binding result in assay [1] is reported as “binds”.

B2: Clone CH2A2.1, Fc displayed on phage (designed binder)
chain: B1 chain with S44E, E46I, P53D, W56Y, W60L
notes: Fc dimer on phage (pIII fusion with c-Myc and 6xHis tags paired with soluble Fc)
As to B2, the binding result in assay [1] was “binds”.

B3: Clone CH2A2.16, Fc displayed on phage (designed binder)
chain: B1 chain with S44W, P53F, R55G, W56V, E57A, W58Y, Q59D, W60V
notes: As m16
Take B3: the binding result in assay [2] was “no binding”; in assay [1], “binds”.

B4: Clone CH2A2.5, Fc displayed on phage (designed binder)
chain: B1 chain with S44A, E46T, W60N
notes: As m16
B4: the binding result in assay [1] is on record as “binds”.
